Source: the RNAGym collection of RNA variant scans (doi:10.1021/acssynbio.7b00057)

B1: Pistol ribozyme (parent)
chain: GGGUCGUUGUUCCAUAAUCGCGUGGAUAUGGCACGCAAGUUUCUACCGGGCACCGUAAAUGUCCGACUGGAGCCGUUCGGGCGGCUAUAAACAGACCUCAGGCCCGAAGCGUGGCGGCACCUGCCGCCGGUGGUAAAAAAGAUCGGAAGAGCACACGUCU

Variants of: B1
Test: aptazyme ON/OFF ratio, guanine; higher = stronger switching; co-transcriptional cleavage with and without guanine

In order of falling “aptazyme ON/OFF ratio” value:
1. U7G G9A U10A U11A  2.42
2. U7G G9A U10C U11A  2.37
3. U7G G9A U10A U11G  2.05
4. U7G G9C U10A U11C C12A  1.76
5. U7G G9A U10C U11G  1.68
6. U7G G9A C13U  1.49
7. U7G G9C U10A U11C C12U  1.46
8. U7G G9C C12G C13U  1.43
9. U7G G9C U10A C12A  1.43
10. U7G G9C U10A U11G C12U  1.43
11. U7G G9A U11A C12U  1.41
12. U7G G9C U10A U11G C12G  1.41
13. U7G G9C U10A C12G  1.4
14. U7G G9C U10A U11C C12A C13U  1.36
15. U7G G9C U10A U11A C12A C13A  1.36
16. U7G G9C U10A U11C C12A C13A  1.34
17. U7G G9A U11C C12U C13U  1.3
18. U7G G9C C12G C13A  1.3
19. U7G G9A U11G C12U  1.3
20. U7G G9C U10A U11C C12G C13U  1.29
21. U7G G9C U10A U11A C12A C13U  1.29
22. U7G G9A U10C C12G C13U  1.27
23. U7G G9C U10A U11C C12G  1.27
24. U7G G9C C12G C13G  1.26
25. U7G G9A C13A  1.24
26. U7G G9A U10A U11C C12A  1.24
27. U7G G9A U10A C12U C13G  1.24
28. U7G G9C U10A U11C C12A C13G  1.23
29. U7G G9A U10A U11C C12G  1.22
30. U7G G9A U10A C12U C13U  1.22
31. U7G G9A U11A C12G  1.21
32. U7G G9C U10A C13A  1.2
33. U7G G9A U11C C12U C13G  1.19
34. U7G G9A U10C U11A C13U  1.19
35. U7G G9A U10C U11G C12U  1.19
36. U7G G9A U10C C12G C13G  1.19
37. U7G G9C U10A C12U  1.18
38. U7G G9A U10A U11C C12G C13U  1.18
39. U7G G9A U10C U11A C13A  1.17
40. U7G G9A U11G C12A  1.17
41. U7G G9A U11G C12G  1.17
42. U7G G9C U10A U11C C12G C13A  1.16
43. U7G G9C U10A C13U  1.16
44. U7G G9A U11C C12U C13A  1.15
45. U7G G9A U10C U11G C12G  1.15
46. U7G G9A U10G C12A C13G  1.15
47. U7G G9C U10A U11A C12A C13G  1.15
48. U7G G9C U10A U11G C12A  1.15
49. U7G G9C U10A U11G C12A C13U  1.14
50. U7G G9A U10G C12U  1.14
51. U7G G9A U10A C12U C13A  1.14
52. U7G G9A U10G C13G  1.13
53. U7G G9A U10G C13U  1.12
54. U7G G9A U11A C12A  1.12
55. U7G G9A C13G  1.11
56. U7G G9A U10G C13A  1.11
57. U7G G9C U10A U11G C12A C13G  1.11
58. U7G G9A U10G C12U C13A  1.11
59. U7G G9A U10G C12U C13G  1.11
60. U7G G9A U10G U11C C12A C13U  1.1
61. U7G G9A U10G C12U C13U  1.1
62. U7G G9A U10A U11C C12G C13G  1.1
63. U7G G9A U10G C12G  1.09
64. U7G G9A U10G C12A  1.09
65. U7G G9A U10C U11A C13G  1.09
66. U7G G9A U10G U11C C12A C13A  1.09
67. U7G G9A U10C U11G C12A  1.09
68. U7G G9A U10C C12G C13A  1.09
69. U7G G9A U10A U11C  1.09
70. U7G G9C U10A C12U C13A  1.09
71. U7G G9A U10G C12A C13A  1.08
72. U7G G9A U10G C12A C13U  1.08
73. U7G G9C U10A U11G C12A C13A  1.07
74. U7G G9A U11G C12A C13U  1.07
75. U7G G9A U11G C12A C13G  1.07
76. U7G G9C U10A C13G  1.07
77. U7G G9C U10A C12U C13U  1.07
78. U7G G9A U10G U11C C12A C13G  1.06
79. U7G G9A U11G C12A C13A  1.06
80. U7G G9C U10A U11C C12G C13G  1.06
81. U7G G9A U10A U11C C12U  1.05
82. U7G G9C U10A C12U C13G  1.05
83. U7G G9A U10C U11C  1.04
